Results from PMC3360023, “Identification and Characterisation of a Novel Acylpeptide Hydrolase from Sulfolobus Solfataricus: Structural and Functional Insights” (PLoS ONE, 2012).

Legend:
[1] = molecular target: APEH-3Ss, acylpeptide hydrolase from Sulfolobus solfataricus coded by the gene sso2693 (Sulfolobus solfataricus P2); assay: SEC; gel filtration of the native purified enzyme on two columns (Superdex 200 HR 10/30; Superose 12 PC 3.2/30), calibrated with BioRad gel filtration standards
[2] = molecular target: APEH-3Ss, acylpeptide hydrolase from Sulfolobus solfataricus coded by the gene sso2693 (Sulfolobus solfataricus P2); assay: SEC; Superose 12 3.2/30; enzyme treated with 0.5 M GnHCl, column equilibrated with Tris-HCl 0.05 M pH 7.5 containing 0.5 M GnHCl
[3] = molecular target: APEH-3Ss, acylpeptide hydrolase from Sulfolobus solfataricus coded by the gene sso2693 (Sulfolobus solfataricus P2); assay: SEC; Superose 12 3.2/30; enzyme treated with 0.5 M GnHCl, then dialysed extensively against Tris-HCl 0.05 M pH 7.5 before gel filtration
[4] = molecular target: APEH-3Ss, acylpeptide hydrolase from Sulfolobus solfataricus coded by the gene sso2693 (Sulfolobus solfataricus P2)
purified protein [5] = substrate: CC(=O)N[C@@H](Cc1ccccc1)C(=O)Nc1ccc([N+](=O)[O-])cc1; assay: purified protein; format: biochemical, Saccharolobus solfataricus; conditions: 25 mM Tris-HCl pH 7.5, 90°C
purified protein [6] = substrate: CC(=O)N[C@@H](C)C(=O)Nc1ccc([N+](=O)[O-])cc1; assay: purified protein; format: biochemical, Saccharolobus solfataricus; conditions: 25 mM Tris-HCl pH 7.5, 90°C
purified protein [7] = substrate: CC(=O)N[C@@H](CC(C)C)C(=O)Nc1ccc([N+](=O)[O-])cc1; assay: purified protein; format: biochemical, Saccharolobus solfataricus; conditions: 25 mM Tris-HCl pH 7.5, 90°C

APEH-3Ss, acylpeptide hydrolase from Sulfolobus solfataricus coded by the gene sso2693 (enzyme)
stoichiometry N [1]: 3 | stoichiometry N [2]: 2 | stoichiometry N [3]: 3

B1: SsCEI (Sulfolobus solfataricus chymotrypsin-elastase inhibitor) (natural protein)
chain: MNSESIYSMRVVSSAFKNEDFIPIKYTCDGQDLSPELEWDLVTNAKSYAIIVEDPDAPGGTFIHWVIYNITTNRLPEGVPRLYKSQYGVQGVNDFGNIGYNGPCPPKTHPPHRYYFYVYAIDTILLEIKNINADKLKSLMEGHGIERGFVMGKYKRK
IC50 of inhibition of APEH-3Ss activity on Ac-L-pNA (0.2 mM); protease pre-incubated with increasing SsCEI for 30 min at 80°C, Tris-HCl 50 mM pH 7.5 [4]: 0.008 µM | IC50 of inhibition of APEH-3Ss activity on Suc-GGF-pNA (0.2 mM); protease pre-incubated with increasing SsCEI for 30 min at 80°C, Tris-HCl 50 mM pH 7.5 [4]: 0.02 µM

B2: APEH-3Ss (Saccharolobus solfataricus P2) (protein)
chain: MKPEDYYYSIKLVPEITIENGKLFHVETWIEEDKYKSSIYLNLKRITFQGNESSPKFNNDKLYFIRNEEAKSSLLEAQLYGEPKVIFTFSGKISKYEFHNKGILVIAEENTDKTLPFRAEKIKYRFDSRGLLRARQSLYLFDGKDLRRLVTGNFDVTDLATNGNRVVISATKDGDDYGLGNLYEVNIETGELNRITKEDGTVQAIAMNSEGKIAFLGHRKGLTPWASLEIMLPEEGKSYMCGKTCGNKVLTDLFDGVKDRIVFEKDLILSLGQEGGTSHIYQISDNKVDKVTSGNIMVRGFDYSNSELAYFYSTPEKPVILKYRDIEYDPNPNIKGYTPERITVNSNGVEVEGWSIIKDPNAPTILFIHGGPHMAYGYGYFIEFQFFVDNGFNVIYANPRGSQGYGEEFAKACVGDWGGKDFEDLMNFVNTVKERYSLKGKFGITGGSYGGFMTNWIVTKTSMFSAAISERSISNLVSMCGTSDIGFWFNAIESGIADPWSTEGIEKLMKMSPIYYVKNVKTPTMLIHGEEDYRCPIEQAEQFYVALKMQGVPTTLVRYQGDSHEHARRGKPKNMIDRLKTKLEWFSKYLL
notes: native enzyme purified from S. solfataricus P2 cells; full length 591 aa, not processed; N-terminus MKPEDYYYSI; 64 kDa by SDS-PAGE; homotrimer 192 kDa
Km (purified protein [5]): 40 µM | kcat (purified protein [5]): 0.08 ± 0.005 s⁻¹ | kcat/Km (purified protein [5]): 2000 ± 10 M⁻¹ s⁻¹ | Km (purified protein [6]): 800 ± 60 µM | kcat (purified protein [6]): 14 ± 0.1 s⁻¹ | kcat/Km (purified protein [6]): 17500 ± 100 M⁻¹ s⁻¹ | Km (purified protein [7]): 600 ± 50 µM | kcat (purified protein [7]): 18 ± 0.1 s⁻¹ | kcat/Km (purified protein [7]): 32700 ± 400 M⁻¹ s⁻¹
